The results in this text go back to the supplement of paper PMC7877785.

The data set in a line: self-splicing fitness, log relative to wild type (ln ratio); higher = more splicing; Tetrahymena group I intron in knt gene, E. coli kanamycin selection, DiMSum; sequences stand for … in CUCUCU…GGAGGGAAAAGUUAUCAGGCAUGCACCUGGUAGCUAGUCUUUAAACCAAUAGAUUGCAUCGGUUUAAAAGGCAAGACCGUCAAAUUGCGGGAAAGGGGUCAACAGCCGUUCAGUACCAAGUCUCAGGGGAAACUUUGAGAUGGCCUUGCAAAGGGUAUGGUAAUAAGCUGACGGACAUGGUCCUAACCACGCAGCCAAGUCCUAAGUCAACAGAUCUUCUGUUGAUAUGGAUGCAGUUCACAGACUAAAUGUCGGUCGGGGAAGAUGUAUUCUUCUCAUAAGAUAUAGUCGGACCUCUCCUUAAUGGGAGCUAGCGGAUGAAGUGAUGCAACACUGGAGCCGCUGGGAACUAAUUUGUAUGCGAAAGUAUAUUGAUUAGUUUUGGAGUACUCGUGGUCG
The procedure, abridged:
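DiMSum derived fitness as the error-weighted combination of fold changes across replicates, kanamycin versus no kanamycin, normalised to wild type. E. coli BL21(DE3) held the library, which randomised all eight P1ex-region intron nucleotides within the knt kanamycin-resistance gene on pET-22b(+). Six replicate transformations grew overnight at 37°C or 30°C on LB agar with or without 25 μg/mL kanamycin, also containing 100 μg/mL carbenicillin, 50 μM IPTG and 0.2% rhamnose, and pooled colonies were amplicon-sequenced on an Illumina HiSeq 2500.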

± gives the uncertainty stated by the source.

Turning to CGGUAGCAAUAUUACGCCAU, the “self-splicing fitness (ln)” value is, setting by setting: (30 °C) -1.58 ± 0.32; (37 °C) -2.46 ± 0.39.
On the same counts, the results for AGUCAGCAAUAUUACGUAUA are -2.69 ± 0.12 and -1.33 ± 0.1.
In the case of GGCGAGCAAUAUUACGCCUG, the “self-splicing fitness (ln)” value (30 °C) was -1.97 ± 0.43.
For the sequence GAGCAGCAAUAUUACGCCAU, the “self-splicing fitness (ln)” value reads like this: (30 °C) -2.67 ± 0.46; (37 °C) -3.33 ± 0.43.
On the same counts, the results for CGUAAGCAAUAUUACGAUCU are -2.36 ± 0.15 and -0.243 ± 0.11.
Regarding CGAGAGCAAUAUUACGGUUU, the “self-splicing fitness (ln)” value was -3.15 ± 0.15 (30 °C) and -2.58 ± 0.21 (37 °C).
Regarding CCAUAGCAAUAUUACGUGAC, the “self-splicing fitness (ln)” value (30 °C) was -2.57 ± 0.13 and the “self-splicing fitness (ln)” value (37 °C) was -2.79 ± 0.3.
The like results for GUUAAGCAAUAUUACGAAAA were, in that order, -1.13 ± 0.27 and -2.1 ± 0.24.
With AUAAAGCAAUAUUACGGAAG, the “self-splicing fitness (ln)” value is -2.3 ± 0.098 (30 °C) and -0.18 ± 0.11 (37 °C).
On to UGCAAGCAAUAUUACGACUU, for which the “self-splicing fitness (ln)” value runs as follows: (30 °C) -2.34 ± 0.1; (37 °C) -0.599 ± 0.11.
The like results for GCGGAGCAAUAUUACGUCGU were, in that order, -4.11 ± 0.35 and -2.24 ± 0.36.
Take GGCCAGCAAUAUUACGCUCG: the “self-splicing fitness (ln)” value runs as follows: (30 °C) -2.5 ± 0.15; (37 °C) -0.863 ± 0.13.
On the same counts, the results for CAUUAGCAAUAUUACGUUUU are -4 ± 0.24 and -3.21 ± 0.24.
Take UGAUAGCAAUAUUACGUCCU: the “self-splicing fitness (ln)” value is -0.302 ± 0.07 (30 °C) and 0.376 ± 0.1 (37 °C).
For CAAAAGCAAUAUUACGGCAU, the “self-splicing fitness (ln)” value reads like this: (30 °C) -1.85 ± 0.11; (37 °C) -1.4 ± 0.14.
On to ACGGAGCAAUAUUACGUUUU, for which the “self-splicing fitness (ln)” value (37 °C) was -3.08 ± 0.2.
As for GCACAGCAAUAUUACGUACA, the “self-splicing fitness (ln)” value (30 °C) is -2.07 ± 0.1 and the “self-splicing fitness (ln)” value (37 °C) is -0.994 ± 0.1.
Take UAGUAGCAAUAUUACGAUGA: the “self-splicing fitness (ln)” value by setting is: (30 °C) -1.59 ± 0.26; (37 °C) -1.7 ± 0.28.
On the same counts, the results for ACUUAGCAAUAUUACGGCAG are -1.6 ± 0.092 and -0.759 ± 0.12.
Turning to GUAUAGCAAUAUUACGUGGC, the “self-splicing fitness (ln)” value is -3.62 ± 0.33 (30 °C) and -2.09 ± 0.28 (37 °C).
On the same counts, the results for AGCGAGCAAUAUUACGGUGU are -2.55 ± 0.24 and -2.37 ± 0.24.
With UGACAGCAAUAUUACGUCCU, the “self-splicing fitness (ln)” value (30 °C) is -0.124 ± 0.076 and the “self-splicing fitness (ln)” value (37 °C) was found to be 0.379 ± 0.099.
In the case of CUAAAGCAAUAUUACGAGAC, the “self-splicing fitness (ln)” value is, setting by setting: (30 °C) -3.33 ± 0.18; (37 °C) -0.499 ± 0.16.
In the case of ACCCAGCAAUAUUACGAGUC, the “self-splicing fitness (ln)” value is -4.16 ± 0.15 (30 °C) and -2.3 ± 0.15 (37 °C).
As for UUCGAGCAAUAUUACGGGAA, the “self-splicing fitness (ln)” value was -1.74 ± 0.16 (30 °C) and -0.981 ± 0.15 (37 °C).
On to CAUCAGCAAUAUUACGGGCU, for which the “self-splicing fitness (ln)” value runs as follows: (30 °C) -4.04 ± 0.31; (37 °C) -2.48 ± 0.2.
AGAGAGCAAUAUUACGUAGC: the “self-splicing fitness (ln)” value reads like this: (30 °C) -4.09 ± 0.3; (37 °C) -3.62 ± 0.46.
The like results for UGAAAGCAAUAUUACGGGCU were, in that order, -2.04 ± 0.16 and -1.97 ± 0.27.
The like results for AGUGAGCAAUAUUACGAGUA were, in that order, -3.6 ± 0.44 and -2.18 ± 0.32.
The like results for GCAGAGCAAUAUUACGUCAC were, in that order, -3.67 ± 0.34 and -2.48 ± 0.32.
Take AGGAAGCAAUAUUACGCACG: the “self-splicing fitness (ln)” value (30 °C) was -0.986 ± 0.15 and the “self-splicing fitness (ln)” value (37 °C) was -1.23 ± 0.18.
Take UUGGAGCAAUAUUACGAAUA: under “37 °C”, the “self-splicing fitness (ln)” value was -2.1 ± 0.46.
Regarding AGGAAGCAAUAUUACGUUUG, the “self-splicing fitness (ln)” value (30 °C) is -3.55 ± 0.17 and the “self-splicing fitness (ln)” value (37 °C) is -2.48 ± 0.19.
The like results for GAGAAGCAAUAUUACGUCAA were, in that order, -1.82 ± 0.11 and -0.98 ± 0.11.
On to GUCAAGCAAUAUUACGCUGC, for which the “self-splicing fitness (ln)” value (37 °C) is -3.33 ± 0.27.
Take ACGCAGCAAUAUUACGAAUU: the “self-splicing fitness (ln)” value (30 °C) is -4.01 ± 0.23 and the “self-splicing fitness (ln)” value (37 °C) was -1.48 ± 0.1.
For ACGGAGCAAUAUUACGAUUC, the “self-splicing fitness (ln)” value (30 °C) is -2.11 ± 0.32.
As for AAUGAGCAAUAUUACGCCUG, the “self-splicing fitness (ln)” value runs as follows: (30 °C) -3.5 ± 0.2; (37 °C) -2.85 ± 0.26.
In the case of AUAUAGCAAUAUUACGACUG, the “self-splicing fitness (ln)” value by setting is: (30 °C) -1.47 ± 0.14; (37 °C) -1.65 ± 0.21.
